Data published in patent US20240101686A1.
Like-named read-outs stand apart in the source and are kept apart here. Blank lines part the entries; values can stand above or below the substance they belong to.

Tests used:
[1] = target: human EGFRvIII-His tag protein (extracellular domain Leu25-Ser378) (human) (UniProt P00533)
[2] = target: murine EGFR protein (murine) (UniProt Q01279)
[3] = target: murine EGFR protein (murine) (UniProt Q01279); remark: listed apart in the source
[4] = target: human EGFRvIII-His tag protein (extracellular domain Leu25-Ser378) (human) (UniProt P00533); remark: listed apart in the source
[5] = target: monkey EGFR protein (commercial, SB, catalog number 90285-C08H) (monkey); test: ELISA, coated monkey EGFR protein, antibody 0.0001 nM
[6] = target: human EGFRvIII-His tag protein (extracellular domain Leu25-Ser378) (human) (UniProt P00533); remark: listed apart in the source
[7] = target: human EGFR endogenously expressed on A431 cells (human) (UniProt P00533)
[8] = target: murine EGFR protein (murine) (UniProt Q01279); remark: listed apart in the source
[9] = target: human EGFRvIII-His tag protein (extracellular domain Leu25-Ser378) (human) (UniProt P00533); remark: listed apart in the source
[10] = target: monkey EGFR protein (commercial, SB, catalog number 90285-C08H) (monkey); test: ELISA, coated monkey EGFR protein, antibody 10 nM
[11] = target: human EGFRvIII-His tag protein (extracellular domain Leu25-Ser378) (human) (UniProt P00533); remark: listed apart in the source
[12] = target: monkey EGFR protein (commercial, SB, catalog number 90285-C08H) (monkey); test: ELISA, coated monkey EGFR protein, antibody 0.1 nM
[13] = target: murine EGFR protein (murine) (UniProt Q01279); remark: listed apart in the source
[14] = target: murine EGFR protein (murine) (UniProt Q01279); remark: listed apart in the source
[15] = target: murine EGFR protein (murine) (UniProt Q01279); remark: listed apart in the source
[16] = target: monkey EGFR protein (commercial, SB, catalog number 90285-C08H) (monkey); test: ELISA, coated monkey EGFR protein, antibody 100 nM
[17] = target: monkey EGFR protein (commercial, SB, catalog number 90285-C08H) (monkey); test: ELISA, coated monkey EGFR protein, antibody 0.001 nM
[18] = target: human EGFRvIII-His tag protein (extracellular domain Leu25-Ser378) (human) (UniProt P00533); remark: listed apart in the source
[19] = target: human EGFRvIII-His tag protein (extracellular domain Leu25-Ser378) (human) (UniProt P00533); remark: listed apart in the source
[20] = target: human EGFRvIII-His tag protein (extracellular domain Leu25-Ser378) (human) (UniProt P00533); remark: listed apart in the source
[21] = target: monkey EGFR protein (commercial, SB, catalog number 90285-C08H) (monkey); test: ELISA, coated monkey EGFR protein, antibody 0.01 nM
[22] = target: cynomolgus monkey EGFR on HEK293T-monkey EGFR cells (cynomolgus monkey); test: FACS, HEK293T-monkey EGFR cells (specificity assay)
[23] = target: murine EGFR protein (murine) (UniProt Q01279); remark: listed apart in the source
[24] = target: murine EGFR protein (murine) (UniProt Q01279); remark: listed apart in the source
[25] = target: cynomolgus monkey EGFR on HEK293T-monkey EGFR cells (cynomolgus monkey); test: FACS, HEK293T-monkey EGFR cells
[26] = target: monkey EGFR protein (commercial, SB, catalog number 90285-C08H) (monkey); test: ELISA, coated monkey EGFR protein, antibody 1 nM
[27] = target: monkey EGFR protein (commercial, SB, catalog number 90285-C08H) (monkey); test: ELISA, coated monkey EGFR protein, antibody 0 nM (blank)
[28] = target: human EGFR on cells (human) (UniProt P00533)
[29] = target: human EGFR on cells (human) (UniProt P00533); remark: listed apart in the source
[30] = target: human EGFRvIII on cells (human) (UniProt P00533)
[31] = target: human EGFR on cells (human) (UniProt P00533); remark: listed apart in the source
[32] = target: human EGFR on cells (human) (UniProt P00533); remark: listed apart in the source
[33] = target: human EGFR-His-tagged fusion protein (human) (UniProt P00533)
[34] = target: human EGFRvIII on cells (human) (UniProt P00533); test: FACS on CHO-K1-EGFRvIII 2G3 cells
[35] = target: human EGFR-His-tagged fusion protein (human) (UniProt P00533); remark: listed apart in the source
Her2 protein (human) = Her2 protein (human) (UniProt P04626)
[36] = target: human EGFR on cells (human) (UniProt P00533); remark: listed apart in the source
[37] = target: human EGFR-His-tagged fusion protein (human) (UniProt P00533); remark: listed apart in the source

OD450 [1]: 0.13 | OD450 [2]: 1.16 | OD450 [3]: 0.05 | OD450 [4]: 0.09 | OD450 [5]: 0.06 | OD450 [6]: 0.22 | Max MFI [7]: 199 | OD450 [8]: 0.12 | OD450 [9]: 0.07 | OD450 [10]: 0.13 | OD450 [11]: 0.6 | OD450 [12]: 0.09 | OD450 [13]: 0.05 | OD450 [14]: 0.06 | OD450 [15]: 0.06 | OD450 [16]: 0.71 | OD450 [17]: 0.09 | OD450 [18]: 0.08 | OD450 [19]: 0.19 | OD450 [20]: 0.07 | OD450 [21]: 0.19 | Max MFI [22]: 141 | OD450 [23]: 0.06 | OD450 [24]: 0.06 | Max MFI [25]: 240 | OD450 [26]: 0.21 | OD450 [27]: 0.07
Substance: anti-hel-hIgG1 (negative control antibody against hen egg lysozyme)

Average fluorescence intensity [28]: 74 | Average fluorescence intensity [29]: 1560 | Average fluorescence intensity [30]: 35.4 | Average fluorescence intensity [31]: 1560 | Average fluorescence intensity [32]: 1560 | OD450 [33]: 0.07 | Average fluorescence intensity [34]: 35.4 | OD450 [35]: 0.71 | OD450 (Her2 protein (human)): 0.21 | Max MFI [36]: 159 | OD450 [37]: 0.05
Substance: anti-hel-hIgG1 (antibody)
